According to the supplement of paper PMC9732359:
± gives the uncertainty stated by the source.

Test: protein stability index of a GFP-peptide fusion (yeast GPS) (PSI 1-4); higher = more stable; sorted into four equal gates, so the index is relative within each strain
Method in brief: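 Mid-log yeast cultures in leucine-free medium, carrying a pooled plasmid library, were sorted into four equal gates by their GFP/Cherry fluorescence ratio. Each plasmid expressed Cherry along with GFP fused upstream of a tiled 17-residue yeast protein peptide. Plasmids recovered from each gate were PCR-amplified and Illumina-sequenced, with reads assigned to strains by barcodes. The protein stability index was obtained by summing each gate's read frequency weighted by its gate number.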

Sequence | protein stability index (doa10∆) | protein stability index (ubr1∆) | protein stability index (pdr5∆) | protein stability index (san1∆)
RYKFPGQQKIILSKKWG [RPL10] | 2.69 ± 0.22 | 2.29 ± 0.21 | – | –
RFKNSVKWYHFDHNDKK [PRE7] | 2.32 ± 0.057 | 2.62 ± 0.043 | 2.76 ± 0.064 | 2.69 ± 0.043
RCGRRSFHVQKKTCSSC [RPL37A] | 2.3 ± 0.04 | 2.39 ± 0.038 | 2.56 ± 0.061 | 2.47 ± 0.048
LSDNAKTLHSQMMSKGI [RPC34] | 3.19 ± 0.18 | 3.11 ± 0.056 | 3.32 ± 0.098 | 3.26 ± 0.071
MVATVKRTIRIKTQQHI [TAF14] | 1.62 ± 0.09 | 1.56 ± 0.09 | 1.95 ± 0.053 | 1.53 ± 0.14
ALTTIKGVGRRYSNLVC [RPS18A] | 2.56 ± 0.089 | 2.62 ± 0.077 | 2.4 ± 0.084 | 2.92 ± 0.12
GKMNNEVSTSTSMTGDA [SWI3] | 3.49 ± 0.076 | 3.15 ± 0.053 | 3.3 ± 0.069 | 3.2 ± 0.054
TQTYMQMIELNRQICLV [GRR1] | 2.35 ± 0.13 | 1.25 ± 0.047 | 1.44 ± 0.073 | 1.35 ± 0.19
VAFLDNDLGKFIPNKQL [RPN7] | 3.34 ± 0.17 | 2.88 ± 0.095 | 3.02 ± 0.17 | 2.83 ± 0.26
WKQDLTKEEAIKLASDA [PUP1] | 2.81 ± 0.19 | 3.01 ± 0.16 | 3.16 ± 0.14 | 2.2 ± 0.14
AEQFKHQHGDKVDIFEI [FAS2] | – | 3.06 ± 0.21 | – | –
HVLKTVDYGGAEWSLVR [SNU114] | 3.09 ± 0.19 | 1.31 ± 0.29 | 3.42 ± 0.21 | 3.11 ± 0.18
FDQSTNVKVIMATNRAD [RPT3] | 2.12 ± 0.054 | 2.02 ± 0.051 | 2.15 ± 0.053 | 1.52 ± 0.074
GLRAVRKNRYVILQSDL [RPT3] | 3.05 ± 0.081 | 3.31 ± 0.14 | 3.06 ± 0.1 | 3.05 ± 0.08
DDNEMTRDDLLTILMRS [RRI2] | 2.44 ± 0.2 | – | 2.66 ± 0.19 | –
GRICRPLIIVSDGQSRV [RET1] | 2.06 ± 0.045 | 2.16 ± 0.038 | 2.11 ± 0.037 | 1.75 ± 0.059
ADDHASVQINVAKVDEE [RPS21A] | 3.26 ± 0.062 | 3.26 ± 0.04 | 3.08 ± 0.072 | 3.13 ± 0.045
TNGKPDMAILERYYELA [ARP7] | 3.23 ± 0.088 | 3.19 ± 0.06 | 3.1 ± 0.097 | 3.01 ± 0.075
TGATSLFGSSNNNNNNN [YGL172W/NUP49] | 2.39 ± 0.046 | 2.42 ± 0.043 | 2.07 ± 0.038 | 2.34 ± 0.056
IYSVEKKISRLPKFLTV [UBP6] | 2.04 ± 0.065 | 2.46 ± 0.035 | 2.07 ± 0.066 | 2.14 ± 0.091
PEETPLEELAETFQDTF [FAS2] | 3.11 ± 0.056 | 3.32 ± 0.059 | 2.96 ± 0.062 | 3.12 ± 0.048
EYIFEAHEIIKREEKAM [CDC53] | 1.77 ± 0.039 | 2.28 ± 0.043 | 2.39 ± 0.088 | 2.54 ± 0.086
NAIFQMESEEVPLTKRY [PCI8] | 2.81 ± 0.05 | 3.08 ± 0.044 | 2.82 ± 0.045 | 2.85 ± 0.038
KSMASAFGVSVAFLDND [RPN7] | 3.04 ± 0.091 | 3.24 ± 0.062 | 3.08 ± 0.093 | 3.01 ± 0.066
SYQPMYQRPMQVQGQQQ [SSN3] | 1.46 ± 0.043 | 1.89 ± 0.054 | 1.71 ± 0.06 | 1.92 ± 0.11
HVKIRATGGTRTKTPGP [RPS14B] | 1.38 ± 0.13 | – | 1.84 ± 0.15 | 2.25 ± 0.25
FKRNAVFVGTIFAGAFV [QCR9] | 1.92 ± 0.064 | 1.67 ± 0.051 | 1.58 ± 0.054 | 1.26 ± 0.12

Sequence | protein stability index (doa10∆) | protein stability index (ubr1∆) | protein stability index (pdr5∆) | protein stability index (san1∆)
REIESLIAEETNNKKLL [SMC3] | 2.78 ± 0.18 | 2.92 ± 0.15 | 2.86 ± 0.082 | 3.01 ± 0.11
ISMILRNISFSDNNSRI [SWI1] | 3.02 ± 0.06 | 3.08 ± 0.04 | 2.86 ± 0.059 | 2.77 ± 0.058
RDHEKDTYRTLMEEIES [YIL149C/MLP2] | 3.31 ± 0.044 | 3.26 ± 0.037 | 3.38 ± 0.043 | 3.414 ± 0.031
EIIADWIWDMNVHGSLE [BRR2] | 1.89 ± 0.1 | 2.18 ± 0.054 | 2.43 ± 0.095 | 2.88 ± 0.085
IPAGIYWYWWKNGNEYN [QCR8] | 2.35 ± 0.076 | 2.04 ± 0.089 | 1.69 ± 0.053 | 1.77 ± 0.13
MNRPGARVTRRKRCKGT [RPL11A] | 3.05 ± 0.21 | 3.15 ± 0.13 | 3.25 ± 0.13 | 3.46 ± 0.081
KSAISNNFRESDIIILK [SIR4] | 3 ± 0.08 | 3.09 ± 0.059 | 2.56 ± 0.065 | 2.96 ± 0.06
SLFSHRKHTRGDVSSGL [BRN1] | 3.28 ± 0.19 | 3.22 ± 0.059 | 3.01 ± 0.17 | 3.28 ± 0.16
CITLDQLAVRAPKGQNT [RPL18A] | – | 3.38 ± 0.095 | 3.39 ± 0.2 | 2.94 ± 0.079
MGAYKYLEELQRKKQSD [RPL15A] | – | – | 2.75 ± 0.28 | –
QELQIKRDVLDDLYRKL [CSE2] | 2.27 ± 0.14 | – | 2.19 ± 0.15 | –
GGSATARHKKKVENLDY [YML031W/NDC1] | 3.4 ± 0.14 | 3.62 ± 0.29 | 3.38 ± 0.14 | 3.06 ± 0.12
MALNKVLITDHIEKLEN [CDC53] | 2.52 ± 0.053 | 2.28 ± 0.052 | 2.14 ± 0.047 | 2.15 ± 0.059
GKICLILTRLNGILPDD [SSN2] | 3.12 ± 0.21 | 3.5 ± 0.15 | – | –
AIRADPAFKPTEKKFTK [RPL5] | 3.11 ± 0.26 | 3.2 ± 0.24 | 3.15 ± 0.3 | 3.18 ± 0.2
KQRAGTASFIPLDTIET [SMC1] | 2.62 ± 0.06 | 2.66 ± 0.051 | 2.82 ± 0.064 | 2.65 ± 0.056
ELLSSLEGKGSLEEIIA [RPP2B] | 2.27 ± 0.08 | 1.92 ± 0.064 | 2.24 ± 0.061 | 2.63 ± 0.052
FQDTLYKKIPLLGPTLE [QCR10] | 2.84 ± 0.13 | 2.95 ± 0.1 | 2.94 ± 0.11 | 2.47 ± 0.18
IIQPFLDNSKMDYHFIF [RGR1] | 2.99 ± 0.13 | 2.31 ± 0.11 | 2.06 ± 0.082 | 2.22 ± 0.049
EDQKVVDKALIAEIKKT [RPL6A] | 3.37 ± 0.13 | 3.61 ± 0.072 | 3.48 ± 0.084 | 3.19 ± 0.11
SKLMPVLKSSVYEYVIA [RPC82] | 1.42 ± 0.061 | 1.46 ± 0.056 | 1.57 ± 0.059 | 1.25 ± 0.1
WSEISNELPDIEALYDD [RPN2] | 3.49 ± 0.29 | 3.12 ± 0.11 | 3.57 ± 0.25 | 3.29 ± 0.16
FDEFMNVVIDEAVEIPV [SME1] | 2.86 ± 0.056 | 2.9 ± 0.045 | 3.19 ± 0.066 | 2.94 ± 0.071
SNGEFIPHIFYSLHQIR [CSE2] | 2.02 ± 0.07 | 2.34 ± 0.057 | 2.1 ± 0.054 | 2.12 ± 0.072
EKVRDYENSISKDLRSV [IRR1] | 2.25 ± 0.093 | 2.03 ± 0.051 | 1.98 ± 0.094 | 1.82 ± 0.082
NWRLVEVGRVVLIKKGQ [RPL14A] | 2.17 ± 0.18 | 2.19 ± 0.19 | 1.74 ± 0.13 | 2.15 ± 0.13
